In doi:10.1101/2025.05.11.653314, “Ureaplasma parvum SMC-ScpAB complex is capable of loop extrusion and demonstrates properties that distinguish it from Bacillus subtilis homologue” (bioRxiv, 2025):

B1: B. subtilis Smc (enzyme, Bacillus subtilis, UniProt P51834 1-1186, looked up)
chain: MFLKRLDVIGFKSFAERISVDFVKGVTAVVGPNGSGKSNITDAIRWVLGEQSARSLRGGKMEDIIFAGSDSRKRLNLAEVTLTLDNDDHFLPIDFHEVSVTRRVYRSGESEFLINNQPCRLKDIIDLFMDSGLGKEAFSIISQGKVEEILSSKAEDRRSIFEEAAGVLKYKTRKKKAENKLFETQDNLNRVEDILHELEGQVEPLKIQASIAKDYLEKKKELEHVEIALTAYDIEELHGKWSTLKEKVQMAKEEELAESSAISAKEAKIEDTRDKIQALDESVDELQQVLLVTSEELEKLEGRKEVLKERKKNAVQNQEQLEEAIVQFQQKETVLKEELSKQEAVFETLQAEVKQLRAQVKEKQQALSLHNENVEEKIEQLKSDYFELLNSQASIRNELQLLDDQMSQSAVTLQRLADNNEKHLQERHDISARKAACETEFARIEQEIHSQVGAYRDMQTKYEQKKRQYEKNESALYQAYQYVQQARSKKDMLETMQGDFSGFYQGVKEVLKAKERLGGIRGAVLELISTEQKYETAIEIALGASAQHVVTDDEQSARKAIQYLKQNSFGRATFLPLSVIRDRQLQSRDAETAARHSSFLGVASELVTFDPAYRSVIQNLLGTVLITEDLKGANELAKLLGHRYRIVTLEGDVVNPGGSMTGGAVKKKNNSLLGRSRELEDVTKRLAEMEEKTALLEQEVKTLKHSIQDMEKKLADLRETGEGLRLKQQDVKGQLYELQVAEKNINTHLELYDQEKSALSESDEERKVRKRKLEEELSAVSEKMKQLEEDIDRLTKQKQTQSSTKESLSNELTELKIAAAKKEQACKGEEDNLARLKKELTETELALKEAKEDLSFLTSEMSSSTSGEEKLEEAAKHKLNDKTKTIELIALRRDQRIKLQHGLDTYERELKEMKRLYKQKTTLLKDEEVKLGRMEVELDNLLQYLREEYSLSFEGAKEKYQLETDPEEARKRVKLIKLAIEELGTVNLGSIDEFERVNERYKFLSEQKEDLTEAKNTLFQVIEEMDEEMTKRFNDTFVQIRSHFDQVFRSLFGGGRAELRLTDPNDLLHSGVEIIAQPPGKKLQNLNLLSGGERALTAIALLFSILKVRPVPFCVLDEVEAALDEANVFRFAQYLKKYSSDTQFIVITHRKGTMEEADVLYGVTMQESGVSKVISVKLEETKEFVQ
notes: Smc (ATPase of the Smc-ScpAB complex), Bacillus subtilis; gene cloned into pET21a; expected mass printed as 135.5 kDa; source: E. coli Rosetta (DE3), purified (HiTrap Q flow-through, Ni-NTA)
B2: B. subtilis ScpA (natural protein, Bacillus subtilis, UniProt P35154 1-251, looked up)
chain: MEEYQVKIDTFEGPLDLLLHLINRLEIDIYDIPVAKITEQYLLYVHTMRVLELDIASEYLVMAATLLSIKSRMLLPKQEEELFEDELLEEEDPREELIEKLIEYRKYKDAAKDLKEREEERQKSFTKPPSDLSEYAKEVKQSEQKLSVTVYDMIGAFQKVLKRKKINRPMETTITRQDIPIEARMNEIVHSLKSRGTRINFMDLFPYEQKEHLVVTFLAVLELMKNQLVLIEQEHNFSDIYITGSESIHGA
notes: ScpA (kleisin of the Smc-ScpAB complex), Bacillus subtilis; gene cloned into pET21a; expected mass printed as 31 kDa; source: E. coli Rosetta (DE3), purified (Ni-NTA, MonoQ)
B3: B. subtilis ScpB (natural protein, Bacillus subtilis, UniProt P35155 1-197, looked up)
chain: MGLDIVNWKAIVEALLYAAGDEGLTKKQLLTVLEIEEPELNTIMADVADEYRGDTRGIELIEYADTYMLSTKKDFAPYLKKLIEVPSKGLSQASLEVLAIVSYKQPITRAEIEEIRGVKSERILHSLVAKALLCEVGRADGPGRAILYGTTPTFLEQFGLKTLDELPPLPENAEEDVLQEEADLFFENFNQTFEDIK
notes: ScpB (KITE protein of the Smc-ScpAB complex), Bacillus subtilis; gene cloned into pET21a; expected mass printed as 23.2 kDa; source: E. coli Rosetta (DE3), purified (Ni-NTA, MonoQ)

Tests used:
Assay in all cases: cross-linking; purified proteins in various combinations incubated with or without 0.4% formaldehyde in Hepes 50 mM pH 7.5, NaCl 100 mM, DTT 0.1 mM, 20% glycerol; denatured at 65°C with SDS and BME; SDS-PAGE; bands identified by mass spectrometry (peptide fingerprinting)
[1] = molecular target: the molecule itself
B. subtilis Smc = molecular target: B1; details: both partners purified
B. subtilis ScpA = molecular target: B2; details: both partners purified

Row | Binder | stoichiometry N [1] | binding result (B. subtilis Smc) | binding result (B. subtilis ScpA)
1 | B1 | 2 | – | –
2 | B2 | – | binds | –
3 | B3 | 2 | – | binds
